Data on one substance can be found in patent WO2019109974A1.

This test deals with hPD-L1(ECD)-mFc (human). The test is described as follows: ELISA, hPD-L1-mFc coated. In general terms: An ELISA detects its analyte on a solid surface through an enzyme-linked reagent.

As a reminder, the EC50 is the concentration at which the effect is half-maximal.

Chain of hPD-L1(ECD)-mFc (human) (chain, as listed by the source limits assumed): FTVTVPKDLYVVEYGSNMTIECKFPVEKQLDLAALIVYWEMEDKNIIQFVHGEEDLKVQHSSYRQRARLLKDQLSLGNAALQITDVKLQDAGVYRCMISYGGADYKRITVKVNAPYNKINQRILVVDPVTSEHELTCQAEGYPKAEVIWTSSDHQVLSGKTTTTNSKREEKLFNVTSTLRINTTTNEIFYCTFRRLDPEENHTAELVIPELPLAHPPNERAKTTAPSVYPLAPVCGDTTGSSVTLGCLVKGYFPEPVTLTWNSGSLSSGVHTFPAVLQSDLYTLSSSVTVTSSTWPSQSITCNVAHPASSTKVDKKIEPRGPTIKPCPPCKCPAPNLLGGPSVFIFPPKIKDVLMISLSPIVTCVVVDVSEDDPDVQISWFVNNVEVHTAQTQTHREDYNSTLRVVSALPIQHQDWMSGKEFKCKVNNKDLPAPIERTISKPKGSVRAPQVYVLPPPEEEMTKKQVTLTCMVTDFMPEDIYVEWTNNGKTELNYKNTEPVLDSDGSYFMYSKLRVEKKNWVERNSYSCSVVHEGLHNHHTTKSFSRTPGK

In turn, Tecentriq (antibody) displayed a concentration for a half-maximal effect (EC50) of 0.142 µg/mL.
